{"source": "patent US20240034783A1", "binders": {"B1": {"name": "cCl1-1 (antibody, V domains shown)", "VH": "QIQLVQSGPELKKPGESVKISCKASGYTFTDYAMHWVKQAPGKGLKWMGWINTYTGKPTYADDFKGRFVFSLEASASTANLQISNLKNEDTATYFCARAVFYGYTMDAWGQGTSVTVSS", "VL": "DIQMTQSPASLSASLGETISIACRASEDIYSNLAWYQQKSGKSPQLLIFSVKRLQDGVPSRFSGSGSGTQYSLKISGMQPEDEGDYFCLQGSNFPLTFGSGTKLEIK"}, "B2": {"name": "hCl1a (antibody, human IgG1, kappa, V domains shown)", "VH": "QVQLVQSGAEVKKPGASVKVSCKASGYTFTDYAMHWVRQAPGQRLEWMGWINTYTGKPTYAQKFQGRVTITRDTSASTAYMELSSLRSEDTAVYYCARAVFYGYTMDAWGQGTLVTVSS", "VL": "DIQMTQSPSSLSASVGDRVTITCRASEDIYSNLAWYQQKPGKAPKLLIFSVKRLQDGVPSRFSGSGSGTDFTLTISSLQPEDFATYYCLQGSNFPLTFGQGTKVEIKR"}, "B3": {"name": "hCl1c (antibody, human IgG1, kappa, V domains shown)", "VH": "B2 VH with A61S", "VL": "B2 VL with A25T, S50A, V51I, N93K"}, "B4": {"name": "hCl1f (antibody, human IgG1, kappa, V domains shown)", "VH": "B2 VH with T53A", "VL": "B2 VL with F49Y"}, "B5": {"name": "hCl1b (antibody, human IgG1, kappa, V domains shown)", "VH": "B2 VH with A61S", "VL": "B2 VL"}}, "note": "Changes are numbered by the printed parent chain.", "data": [{"target": "CLDN18.2 expressed in mouse healthy stomach tissue (mouse) (UniProt P56857)", "test": "flow cytometry, live cells from healthy mouse stomach, antibody 4 µg/ml", "units": {"% of positive healthy stomach cells (Average)": "%", "% of positive healthy stomach cells (Mouse 1)": "%", "% of positive healthy stomach cells (Mouse 2)": "%"}, "values": [{"binder": "B1", "% of positive healthy stomach cells (Average)": 0.35, "% of positive healthy stomach cells (Mouse 1)": 0.4, "% of positive healthy stomach cells (Mouse 2)": 0.3}, {"binder": "B2", "% of positive healthy stomach cells (Average)": 0.75, "% of positive healthy stomach cells (Mouse 1)": 1.2, "% of positive healthy stomach cells (Mouse 2)": 0.3}, {"binder": "B3", "% of positive healthy stomach cells (Average)": 0.25, "% of positive healthy stomach cells (Mouse 1)": 0.1, "% of positive healthy stomach cells (Mouse 2)": 0.4}, {"binder": "B4", "% of positive healthy stomach cells (Average)": 0.07, "% of positive healthy stomach cells (Mouse 1)": 0.04, "% of positive healthy stomach cells (Mouse 2)": 0.1}, {"binder": "B5", "% of positive healthy stomach cells (Average)": 0.565, "% of positive healthy stomach cells (Mouse 1)": 1, "% of positive healthy stomach cells (Mouse 2)": 0.13}]}]}
